The record followed here is paper doi:10.1101/2025.06.14.659678, “NanoBondy reacting through NeissLock anhydride allows covalent immune cell decoration” (bioRxiv, 2025).

The target of experiment [1] is T1, endogenous human CD45 at the cell-surface (Homo sapiens, UniProt P08575-4).
T1 construct: human CD45 as expressed on NK cell-lines and CD8+ T cells; also called endogenous CD45; source: endogenous, on YTS and NK92 cells and on primary human CD8+ T cells
Kind of experiment: flow cytometry on cells; nanobodies incubated with YTS or NK92 cells (CD45+) or Expi293F cells (CD45-); detected with anti-VHH-Alexa Fluor 647. The conditions noted are these: one partner purified. In general terms: Flow cytometry measures light scatter and fluorescence of single cells or particles in a stream.

Experiment [2] addresses T2, recombinant fragment of the d1 and d2 domains of human CD45 linked to an AviTag (Homo sapiens, biotin (site-specific, on the AviTag)).
T2 construct: human CD45, extracellular domains d1 and d2; Glycosylated; Construct limits may be in the supplementary Methods; also called CD45d1d2; biotinylated human CD45 domains 1 and 2; source: Expi293F cells, purified
T2 chain: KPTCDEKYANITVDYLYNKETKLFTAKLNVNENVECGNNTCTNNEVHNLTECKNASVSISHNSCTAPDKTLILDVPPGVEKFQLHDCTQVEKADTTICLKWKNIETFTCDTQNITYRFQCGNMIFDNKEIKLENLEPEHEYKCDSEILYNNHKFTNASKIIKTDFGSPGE
Kind of experiment: ELISA; nanobodies coated on a plate, incubated with the indicated concentration of biotinylated CD45d1d2; colorimetric detection, absorbance at 450 nm. The conditions noted are these: both partners purified. (An ELISA detects its analyte on a solid surface through an enzyme-linked reagent.)

T1 sequence (P08575 26-1306): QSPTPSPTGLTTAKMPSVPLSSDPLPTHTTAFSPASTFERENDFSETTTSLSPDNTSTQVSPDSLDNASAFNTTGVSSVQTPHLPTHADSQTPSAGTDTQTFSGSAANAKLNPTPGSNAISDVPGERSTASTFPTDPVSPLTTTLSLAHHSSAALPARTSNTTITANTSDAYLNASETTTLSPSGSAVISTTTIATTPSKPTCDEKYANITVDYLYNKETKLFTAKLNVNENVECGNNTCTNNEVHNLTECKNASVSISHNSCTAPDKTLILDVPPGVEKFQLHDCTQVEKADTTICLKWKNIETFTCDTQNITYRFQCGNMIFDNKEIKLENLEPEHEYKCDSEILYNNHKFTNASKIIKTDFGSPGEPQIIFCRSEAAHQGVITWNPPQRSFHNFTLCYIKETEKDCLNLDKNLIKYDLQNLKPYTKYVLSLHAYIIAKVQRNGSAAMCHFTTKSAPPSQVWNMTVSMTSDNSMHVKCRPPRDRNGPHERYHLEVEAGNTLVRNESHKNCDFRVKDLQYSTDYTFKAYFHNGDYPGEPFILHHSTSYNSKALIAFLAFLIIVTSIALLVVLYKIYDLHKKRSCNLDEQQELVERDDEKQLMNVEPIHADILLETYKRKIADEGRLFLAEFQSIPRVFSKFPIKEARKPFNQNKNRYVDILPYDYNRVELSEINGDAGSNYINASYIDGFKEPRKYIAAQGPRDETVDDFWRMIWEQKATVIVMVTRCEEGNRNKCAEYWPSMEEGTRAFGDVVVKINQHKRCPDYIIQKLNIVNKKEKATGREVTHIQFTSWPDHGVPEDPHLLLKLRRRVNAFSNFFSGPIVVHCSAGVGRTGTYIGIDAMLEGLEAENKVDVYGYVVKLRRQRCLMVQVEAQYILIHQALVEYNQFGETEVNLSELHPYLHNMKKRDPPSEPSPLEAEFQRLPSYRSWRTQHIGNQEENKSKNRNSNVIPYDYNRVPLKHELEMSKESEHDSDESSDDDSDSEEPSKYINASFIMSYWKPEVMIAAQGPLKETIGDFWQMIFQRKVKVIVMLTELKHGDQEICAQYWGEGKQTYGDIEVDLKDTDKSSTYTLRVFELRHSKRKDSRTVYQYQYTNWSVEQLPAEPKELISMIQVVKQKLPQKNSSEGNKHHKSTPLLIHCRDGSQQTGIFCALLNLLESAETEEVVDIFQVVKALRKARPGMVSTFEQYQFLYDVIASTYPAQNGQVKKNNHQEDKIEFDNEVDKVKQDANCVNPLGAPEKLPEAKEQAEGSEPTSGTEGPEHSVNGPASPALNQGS

B1: anti-CD45 nanobody 2H5 with C-terminal SpyTag003 (VHH)
VHH: QVQLQESGGGLVQTGGSLTLSCVASGGTFSSYAMGWFRQAPGKEREFVAAIGGSGDSTYYADSVKGRFTISRDNAKNSVYLQMNSLKPEDTAVYYCQADPTMFHKLYYGINPNEYDYWGQGTLVTVSS
notes: constructs are in the supplementary Methods; also called 2H5 nanobody
For the molecule B1, the binding result in experiment [1] and in experiment [2] was “binds” each time.
